{"source": "paper PMC7948501", "about": "“Structure of transmembrane prolyl 4-hydroxylase reveals unique organization of EF and dioxygenase domains” (The Journal of Biological Chemistry, 2020)", "proteins": {"B1": {"name": "soluble human transmembrane prolyl 4-hydroxylase (P4H-TM), residues 88 to 502 with an N-terminal His-tag (enzyme, UniProt Q9NXG6-1 88-502, looked up)", "chain": "DESSDPGPQHRAQGPGPEPTLGPLTRLEGIKVGHERKVQLVTDRDHFIRTLSLKPLLFEIPGFLTDEECRLIIHLAQMKGLQRSQILPTEEYEEAMSTMQVSQLDLFRLLDQNRDGHLQLREVLAQTRLGNGWWMTPESIQEMYAAIKADPDGDGVLSLQEFSNMDLRDFHKYMRSHKAESSELVRNSHHTWLYQGEGAHHIMRAIRQRVLRLTRLSPEIVELSEPLQVVRYGEGGHYHAHVDSGPVYPETICSHTKLVANESVPFETSCRYMTVLFYLNNVTGGGETVFPVADNRTYDEMSLIQDDVDLRDTRRHCDKGNLRVKPQQGTAVFWYNYLPDGQGWVGDVDDYSLHGGCLVTRGTKWIANNWINVDPSRARQALFQQEMARLAREGGTDSQPEWALDRAYRDARVEL", "modifications": "N-linked glycans at Asn368 and Asn382", "notes": "human transmembrane prolyl 4-hydroxylase (P4H-TM), isoform 1 (502 residues), residues 88-502; lacks the short cytoplasmic region and the transmembrane helix; then six histidines and residues 88-502; Calculated mass 48.3 kDa; also called soluble part of human P4H-TM; isoform 1; not shown: His6, N-terminal, kept"}}, "biological_target": "the molecule itself", "experiment": "SEC-SAXS; 7.4 mg/ml on Superdex 200 Increase 5/150, RT; 10 mM Tris HCl pH 7.8, 0.1 M NaCl, 0.1 M glycine, 1% glycerol, with and without 2 mM CaCl2; Bayesian molecular weight estimate"}
{"protein": "B1", "values": [{"measurement": "stoichiometry N", "result": 2}]}
